Measured values published in article PMC3364176.

Molecular target: bovine brain microtubules (bovine) (UniProt Q6B856)
Test: co-sedimentation

Kd: 1000 to 2000 nM
B1: GST-CSAP (glutathione S-transferase fusion with full-length centriole and spindle-associated protein) (natural protein)
chain: MSPGSGVKSEYMKRYQEPRWEEYGPCYRELLHYRLGRRLLEQAHAPWLWDDWGPAGSSEDSASSESSGAGGPAPRCAPPSPPPPVEPATQEEAERRARGAPEEQDAEAGDAEAEDAEDAALPALPVKDVEDKPEQQTRTRETDKSPTSTEPRQQPSALFARGNRKAVKSPQRSSSKIKENKHPFALYGWGEKQTDTGSQKTHNVCASAPVHEIHESALRAKNRRQVEKRKLVAQRQRAHSVDVEKNRKMKASSSENPWMTEYMRCYSARA
